Results from article PMC10183829, “Shuffled ATG8 interacting motifs form an ancestral bridge between UFMylation and autophagy” (The EMBO Journal, 2023).
Substitutions are numbered along the chain they refer to.

Assays:
[1] = tested on: GST-HsUFM1 / mCh-HsC53 interaction; test: On-bead competition of the HsUFM1-HsC53 interaction; type: binding, Homo sapiens; settings: 1 μM HsC53; cAIM peptide 0-100 μM; UBA5 LIR peptide or GABARAP 100 μM
Experimental: (§1) Glutathione‐Sepharose 4B bead slurry (Cytiva, average diameter 90 μm) was washed and diluted 10 times in HEPES buffer (25 mM HEPES pH 7.5, 150 mM NaCl, 1 mM DTT). The beads were then incubated for 30 min at 4°C (16 rpm horizontal rotation) with GST‐tagged bait proteins (2 μM of GST, GST‐FIP200 CD, GST‐ATG8A, GST‐GABARAP, GST‐AtUFM1, and GST‐HsUFM1). The beads were washed five times in 10 times the bead volume of HEPES buffer. The buffer was removed, and the beads were resuspended 1:20 in HEPES buffer. 10 μl of diluted beads was mixed with 20 μl of mCherry‐tagged binding partner at a concentration of 1.5 μM (0.5 μl bead slurry and 1 μM binding partner final concentrations) with or without competitor, as stated in the relative experiment. […]
(§2) From images acquired from a Zeiss LSM700 confocal microscope, the quantification of fluorescence was performed in ImageJ (Schindelin et al, [2012]) by drawing a line across each bead and taking the maximum gray value along the line. The maximum gray value for any given pixel represents the fluorescence intensity.
(§3) For images acquired from a Zeiss LSM800 confocal microscope, we used a custom Fiji Macro. […] In the end, the mean fluorescent intensities were exported out and used for quantification.
(§4) For each method, the fluorescence intensity was normalized against the mean of the control condition.

HsUFM1 = test: Isothermal titration calorimetry, HsUFM1 titrated with HsC53wt; type: binding, Homo sapiens; settings: 40 μM HsUFM1 in cell, 300 or 550 μM HsC53wt in syringe
Experimental: (§5) All experiments were carried out at 25°C in 50 mM sodium phosphate buffer pH 7.0, 100 mM NaCl, using the PEAQ‐ITC Automated (Malvern Panalytical Ltd). For protein–protein interactions, the calorimetric cell was filled with either GABARAP or HsUFM1 and titrated with either HsC53 wt, HsC53 sAIM, HsC53 cAIM, or HsUBA5 LIR. A single injection of 0.4 μl of HsC53 or AtC53 IDRs (not taken into account) was followed by 18 injections of 2 μl each. Injections were made at 150‐s intervals with a duration of 4 s and a stirring speed of 750 rpm. The reference power was set to 10 μcal/s; the feedback mode was set to high. The raw titration data were integrated with NITPIC (Keller et al, [2012]), globally fitted with SEDPHAT (Zhao et al, [2015]), and plotted with GUSSI (Brautigam, [2015]).

GST-GABARAP = test: Microscopy-based on-bead protein-protein interaction assay, GST-GABARAP beads; type: binding, human; settings: 1 μM mCherry-tagged C53 (HsC53 variants per Appendix Fig S10B); normalized fluorescence; mean average; 3 replicates
Experimental: as §1, §2, §3, §4

GABARAP = test: Isothermal titration calorimetry, GABARAP titrated with HsC53 variants; type: binding, human; settings: ITC, 25°C, 50 mM sodium phosphate pH 7.0, 100 mM NaCl; GABARAP 40 or 70 μM in cell; global analysis of 5 titrations, hetero-association model A + B; read-out: KD, best-fit value (ITC, GABARAP)
Experimental: as §5

GST-ATG8A = test: Microscopy-based on-bead protein-protein interaction assay, GST-ATG8A beads; type: binding, Arabidopsis thaliana; settings: 1 μM mCherry-tagged C53 (AtC53 variants per Appendix Fig S10A); normalized fluorescence; mean average; 3 replicates
Experimental: as §1, §2, §3, §4

[2] = tested on: HsFIP200 Claw domain (CD); test: Microscopy-based on-bead protein-protein interaction assay, GST-FIP200 CD beads; type: binding, Homo sapiens; settings: 1 μM HsC53 variant, 2 independent replicates containing 2 technical replicates
Experimental: as §1, §2, §3, §4

B1: GABARAP: human ATG8 isoform GABARAP, used at 100 µM as competitor (protein)
chain: MKFVYKEEHPFEKRRSEGEKIRKKYPDRVPVIVEKAPKARIGDLDKKKYLVPSDLTVGQFYFLIRKRIHLRAEDALFFFVNNVIPPTSATMGQLYQEHHEEDFFLYIAYSDESVYGL
modifications: left off: GST, N-terminal, kept
Competition of the HsC53-HsUFM1 interaction (in words) [1]: able to disrupt

B2: HsC53^wt: recombinant Homo sapiens C53 (CDK5RAP3), wild type (protein)
chain: MEDHQHVPIDIQTSKLLDWLVDRRHCSLKWQSLVLTIREKINAAIQDMPESEEIAQLLSGSYIHYFHCLRILDLLKGTEASTKNIFGRYSSQRMKDWQEIIALYEKDNTYLVELSSLLVRNVNYEIPSLKKQIAKCQQLQQEYSRKEEECQAGAAEMREQFYHSCKQYGITGENVRGELLALVKDLPSQLAEIGAAAQQSLGEAIDVYQASVGFVCESPTEQVLPMLRFVQKRGNSTVYEWRTGTEPSVVERPHLEELPEQVAEDAIDWGDFGVEAVSEGTDSGISAEAAGIDWGIFPESDSKDPGGDGIDWGDDAVALQITVLEAGTQAPEGVARGPDALTLLEYTETRNQFLDELMELEIFLAQRAVELSEEADVLSVSQFQLAPAILQGQTKEKMVTMVSVLEDLIGKLTSLQLQHLFMILASPRYVDRVTEFLQQKLKQSQLLALKKELMVQKQQEALEEQAALEPKLDLLLEKTKELQKLIEADISKRYSGRPVNLMGTSL
modifications: left off: His6, N-terminal, state not stated
notes: recombinant Homo sapiens C53 (CDK5RAP3), wild type
Binding to UFM1 by ITC (in words) (HsUFM1): did not detect appreciable binding

B3: C53^cAIM: text label without species: HsC53^cAIM with GABARAP (ITC, beads), AtC53^cAIM with GST-ATG8 (protein)
chain: B2 chain with I267W, W269G, G270I, I292W, W294G, G295I, I310W, W312G, G313I
Recruited more efficiently to GST-GABARAP than the respective C53 wild-type protein (GST-GABARAP): 35% | Kd (GABARAP): 11.2 µM | Recruited more efficiently to GST-ATG8 than the respective C53 wild-type protein (GST-ATG8A): 22%

B4: HsC53^cAIM: HsC53^(IDWG267WDGI, IDWG292WDGI, IDWG310WDGI) (protein)
chain: B2 chain with I267W, W269G, G270I, I292W, W294G, G295I, I310W, W312G, G313I
FIP200 interaction compared with C53 wild type (in words) [2]: stronger interaction
